“And” between values parts separate entries of the source, which are not always exact repeats. Equal entries are not always repeated.
Assays:
[1] = target: Cynomolgus monkey Ly6E, N-terminal gD-tagged, stably expressed on PC3 cells (cynomolgus monkey); assay: Scatchard analysis on PC3 cells expressing gD-tagged cyno Ly6E (binding to the gD tag)
[2] = target: human Ly6E, N-terminal gD-tagged, stably expressed on PC3 cells (human) (UniProt Q16553); assay: Scatchard analysis on PC3 cells expressing gD-tagged human Ly6E (binding to the gD tag)
[3] = target: T1, human Ly6E, N-terminal gD-tagged, stably expressed on PC3 cells (human, UniProt Q16553 21-101); assay: Scatchard analysis on PC3 cells expressing human Ly6E
T1 construct: GPI-linked protein on cells; also called hu Ly6E; human Ly6E transfected PC3 cells; not shown: N-terminal gD tag of the retroviral vector
T1 sequence: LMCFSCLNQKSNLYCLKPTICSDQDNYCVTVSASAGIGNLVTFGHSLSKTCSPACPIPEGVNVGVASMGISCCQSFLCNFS
Method: (§1) A scatchard analysis was performed to determine affinity and binding sites per cell for the antibodies. Hu.9B12v12 antibody was iodinated several times using the Iodogen method. […] Competition reaction mixtures of 50 μL containing a fixed concentration of iodinated antibody and decreasing concentrations of unlabeled antibody were placed into 96-well plates. The PC3 cells stably transduced with retrovirus to express either recombinant human or Cynomolgus monkey gD tagged Ly6E were detached from flasks using Sigma Cell Dissociation Solution and were washed with binding buffer (DMEM with 2% FBS, 50 mM HEPES, pH 7.2, and 0.1% sodium azide). The washed cells were added at an approximate density of 200,000 cells in 0.2 mL of binding buffer to the 96-well plates containing the 50-μL competition reaction mixtures. […] The filters were counted on a Wallac Wizard 1470 gamma counter (PerkinElmer Life and Analytical Sciences; Wellesley, Mass.). The binding data were evaluated using New Ligand software (Genentech), which uses the fitting algorithm of Munson and Rodbard (1980) to determine the binding affinity of the antibody.

[4] = target: T1, human Ly6E, N-terminal gD-tagged, …; assay: Scatchard analysis (125I antibody) on PC3 cells expressing gD-tagged human Ly6E
Method: as §1

[5] = target: T2, Cynomolgus monkey Ly6E, N-terminal gD-tagged, stably expressed on PC3 cells (cynomolgus monkey, UniProt Q16553 21-101 (human entry)); assay: cell-based Ly6E competitive binding assay, cyno Ly6E; competitor mouse 9B12
T2 construct: also called cyno Ly6E; not shown: N-terminal gD tag of the retroviral vector
T2 chain: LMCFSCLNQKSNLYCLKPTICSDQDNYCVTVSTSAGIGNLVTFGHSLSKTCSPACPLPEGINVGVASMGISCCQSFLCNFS

[6] = target: T1, human Ly6E, N-terminal gD-tagged, …; assay: cell-based Ly6E competitive binding assay, human Ly6E; competitor mouse 9B12
Method: (§2) Cell-based Ly6E competitive binding assay—Cultured human Ly6E transfected PC3 cells were harvested with 5 mM EDTA containing PBS. Cells were washed with PBS and added onto a 384-well high binding plate (Meso Scale Discovery Technology (MSD); Gaithersburg, Md.). The plate was kept at room temperature for 1 hr to allow cells to adhere to the plate as described (See Lu, Y., Wong, W. L. & Meng, Y. G. A high throughput electrochemiluminescent cell-binding assay for therapeutic anti-CD20 antibody selection. Journal of Immunological Methods 314, 74-79 (2006)). The plate with cells was blocked with fetal bovine serum containing PBS for 1 hr and then cooled on ice. Serially diluted antibody variant samples were mixed with equal volume of fixed concentration of mouse 9B12 Ab. The mixtures were added onto the plates and incubated at 4° C. with gentle shaking for 1 hr.
The plate was then washed with cold PBS and an anti-mouse IgG Fc specific Ab (Jackson ImmunoReserach; West Grove, Pa.) labeled with sulfo-ruthenium tag was added to the plate as the detection reagent. […] After incubation the plate was washed again, and MSD read buffer (MSD; Gaithersburg, Md.) was added onto the wells. The plate was read with a MSD SectorÒ imager 6000. The data was graphed and analyzed using KaleidaGraph software (Synergy Software; Reading, Pa.) to determine IC₅₀ values.

[7] = target: T1, human Ly6E, N-terminal gD-tagged, …; assay: cell-based competitive binding on human Ly6E PC3 cells; competitor mouse 9B12
Method: as §2
(§3) The plate was then washed with cold PBS and an anti-mouse IgG Fc specific Ab (Jackson ImmunoReserach; West Grove, Pa.) labeled with sulfo-ruthenium tag was added to the plate as the detection reagent. The plate was incubated at 4° C. with gentle shaking for 1 hr. After incubation the plate was washed again, and MSD read buffer (MSD; Gaithersburg, Md.) was added onto the wells. The plate was read with a MSD SectorÒ imager 6000. The data was graphed and analyzed using KaleidaGraph software (Synergy Software; Reading, Pa.) to determine IC₅₀ values.

[8] = target: T3, Hu Ly6E (immobilized on CM5 chip for SPR) (human, UniProt Q16553 21-101); assay: SPR (Biacore T100), Hu Ly6E immobilized, IgG injected, single cycle kinetics, apparent KD
T3 construct: also called human Ly6E
T3 sequence: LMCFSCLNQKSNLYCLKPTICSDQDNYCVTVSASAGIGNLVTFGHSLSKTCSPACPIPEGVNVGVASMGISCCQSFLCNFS
Method: SPR Affinity Determination—Affinity determinations were performed by surface plasmon resonance using single cycle kinetics on a BIAcore™-T100. Hu Ly6E was immobilized via EDC/NHS chemistry according to supplier's instructions (˜20 response units (RU)) on a CM5 chip. For kinetic measurement, three-fold serial dilution of anti-Ly6E IgG (5 to 405 nM) in PBST were injected with 200 s for association & 300 s for dissociation at a flow rate of 30 ul/min at 25° C. Binding response was corrected by subtracting both the RU from a blank flow cell and from buffer run on the same flow cell. A 1:1 Languir model of simultaneous fitting of kₒₙ and koff was used to measure the apparent KD.

[9] = target: T2, Cynomolgus monkey Ly6E, N-terminal …; assay: Scatchard analysis (125I antibody) on PC3 cells expressing gD-tagged cyno Ly6E
Method: as §1

[10] = target: T2, Cynomolgus monkey Ly6E, N-terminal …; assay: Scatchard analysis on PC3 cells expressing cyno Ly6E
Method: as §1

[11] = target: T1, human Ly6E, N-terminal gD-tagged, …; assay: cell-based Ly6E competitive binding assay on human Ly6E PC3 cells; competitor mouse 9B12
Method: as §2, §3

anti-gD mAb (antibody)
Kd [1]: 2 nM | Sites/Cell [1]: 53000 sites/cell | Kd [2]: 1.1 nM | Sites/Cell [2]: 13000 sites/cell

B1: hu9B12.v12 (antibody, V domains shown)
VH: EVQLVESGPALVKPTQTLTLTCTVSGFSLTGYSVNWIRQPPGKALEWLGMIWGDGSTDYNSALKSRLTISKDTSKNQVVLTMTNMDPVDTATYYCARDYYFNYASWFAYWGQGTLVTVSS
VL: DIQMTQSPSSLSASVGDRVTITCSASQGISNYLNWYQQKPGKTVKLLIYYTSNLHSGVPSRFSGSGSGTDYTLTISSLQPEDFATYYCQQYSELPWTFGQGTKVEIK
notes: Expressed and tested as IgG; Iodinated (125I) tracer plus unlabeled antibody in the Scatchard analysis; also called humanized anti-Ly6E antibody
Kd [3]: 4 nM | Kd [4]: 4 nM | Kd [5]: 16 to 40 nM | Kd [6]: 15 to 19 nM | IC50 [7]: 15 nM and 16 nM | Kd [8]: 7 nM | Kd [9]: 7.9 nM | Kd [10]: 14 nM

B2: humanized 9B12 variant v6 (antibody, V domains shown)
VH: EVQLVESGPALVKPTQTLTLTCTFSGFSLTGYSVNWIRQPPGKALEWLGMIWGDGSTDYNSALKSRLTISKDTSKNQVVLTMTNMDPVDTATYYCARDYYFNYASWFAYWGQGTLVTVSS
VL: DIQMTQSPSSLSASVGDRVTITCSASQGISNYLNWYQQKPGKTVKLLIYYTSNLHSGVPSRFSGSGSGTDFTLTISSLQPEDFATYYCQQYSELPWTFGQGTKVEIK
notes: IgG. k1 graft 43+44 / VH2 graft + 49; Residue changes derived
binding result [11]: no binding

B3: humanized 9B12 variant v11 (antibody, V domains shown)
VH: EVQLVESGPALVKPTQTLTLTCTFSGFSLTGYSVNWIRQPPGKALEWLGMIWGDGSTDYNSALKSRLTISKDTSKNQVVLTMTNMDPVDTATYYCARDYYFNYASWFAYWGQGTLVTVSS
VL: DIQMTQSPSSLSASVGDRVTITCSASQGISNYLNWYQQKPGKTVKLLIYYTSNLHSGVPSRFSGSGSGTDYTLTISSLQPEDFATYYCQQYSELPWTFGQGTKVEIK
notes: IgG. k1 graft 43+44+71 / VH2 graft + 49; Residue change derived
binding result [11]: no binding

B4: humanized 9B12 variant v8 (antibody, V domains shown)
VH: EVQLVESGGGLVQPGGSLRLSCAASGFSLTGYSVNWVRQAPGKGLEWVGMIWGDGSTDYNSALKSRFTISRDNSKNTLYLQMNSLRAEDTAVYYCARDYYFNYASWFAYWGQGTLVTVSS
VL: DIQMTQSPSSLSASVGDRVTITCSASQGISNYLNWYQQKPGKTVKLLIYYTSNLHSGVPSRFSGSGSGTDFTLTISSLQPEDFATYYCQQYSELPWTFGQGTKVEIK
notes: IgG. k1 graft 43+44 / VH3 graft; Residue change derived
binding result [11]: no binding

B5: humanized 9B12 variant v3 (antibody, V domains shown)
VH: EVQLVESGGGLVQPGGSLRLSCAASGFSLTGYSVNWVRQAPGKGLEWVGMIWGDGSTDYNSALKSRFTISRDNSKNTLYLQMNSLRAEDTAVYYCARDYYFNYASWFAYWGQGTLVTVSS
VL: DIQMTQSPSSLSASVGDRVTITCSASQGISNYLNWYQQKPGKAPKLLIYYTSNLHSGVPSRFSGSGSGTDFTLTISSLQPEDFATYYCQQYSELPWTFGQGTKVEIK
notes: Light chain changes derived
binding result [11]: no binding

B6: humanized 9B12 variant v13 (antibody, V domains shown)
VH: EVQLVESGGGLVQPGGSLRLSCAASGFSLTGYSVNWVRQAPGKGLEWVGMIWGDGSTDYNSALKSRFTISRDNSKNTLYLQMNSLRAEDTAVYYCARDYYFNYASWFAYWGQGTLVTVSS
VL: DIQMTQSPSSLSASVGDRVTITCSASQGISNYLNWYQQKPGKTVKLLIYYTSNLHSGVPSRFSGSGSGTDYTLTISSLQPEDFATYYCQQYSELPWTFGQGTKVEIK
notes: IgG. k1 graft 43+44+71 / VH3 graft
binding result [11]: no binding

B7: chimeric 9B12 (antibody, V domains shown)
VH: QVQLKESGPGLVAPSQSLSLTCTVSGFSLTGYSVNWVRQPPGKGLEWLGMIWGDGSTDYNSALKSRLTISKDNSKSQVFLKMNSLQTDDTARYYCARDYYFNYASWFAYWGPGTLVTVSA
VL: DIQMTQTTSSLSASLGDRVTISCSASQGISNYLNWYQQKPDGTVKLLIYYTSNLHSGVPSRFSGSGSGTDYSLTISNLEPEDIATYYCQQYSELPWTFGGGTKVEIK
notes: Chimeric IgG with the mouse 9B12 variable domains; also called ch9B12; Ch 9B12
Kd [3]: 4 nM | Kd [4]: 2 nM | Kd [5]: 5 to 7 nM | Kd [6]: 3 to 6 nM | IC50 [7]: 3 nM and 6 nM and 5 nM | Kd [8]: 6 nM | Kd [9]: 2.9 nM | Kd [10]: 4 nM
